Data from PMC4038590 (PLoS ONE, 2014).

T1: human Med25 ACtivator Interaction Domain (hMed25-ACID), 6 x his-tagged human Med25_(394-543) (human, UniProt Q71SY5 394-543)
T1 construct: source: 15N-labelled in M9 medium for NMR
T1 sequence (looked up): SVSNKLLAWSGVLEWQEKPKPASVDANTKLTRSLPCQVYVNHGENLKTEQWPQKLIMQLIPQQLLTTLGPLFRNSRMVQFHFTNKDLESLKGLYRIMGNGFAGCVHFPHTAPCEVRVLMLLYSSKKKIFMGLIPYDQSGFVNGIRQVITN

B1: GST-VP16-TAD (Herpes simplex virus VP16 transcription activation domain, both subdomains, residues 427-485) (domain or fragment)
chain: DGEDVAMAHADALDDFDLDMLGDGDSPGPGFTPHDSAPYGALDMADFEFEQMFTDALGI
notes: source: E. coli BL21 pLysS, purified (glutathione-sepharose 4B)
B2: GST-VP16-TADn (Herpes simplex virus VP16 N-terminal transcription activation subdomain, residues 412-452) (domain or fragment)
chain: TAPPTDVSLGDELHLDGEDVAMAHADALDDFDLDMLGDGDS
notes: as for B1
B3: Arabidopsis thaliana Med25 ACtivator Interaction Domain (aMed25-ACID), Med25_(551-680) (domain or fragment, UniProt Q7XYY2 551-680, looked up)
chain: TSQSKYVKVWEGNLSGQRQGQPVLITRLEGYRSASASDSLAANWPPTMQIVRLISQDHMNNKQYVGKADFLVFRAMSQHGFLGQLQDKKLCAVIQLPSQTLLLSVSDKACRLIGMLFPGDMVVFKPQIPN
notes: source: 15N-labelled in M9 medium for NMR
B4: 6 x his-tagged Dreb2a_(168-335) (Dehydration responsive element binding protein 2A, Med25-binding domain 168-253 and activation domain 254-335) (domain or fragment, Arabidopsis thaliana, UniProt O82132 168-335, looked up)
chain: DCESKPFSGGVEPMYCLENGAEEMKRGVKADKHWLSEFEHNYWSDILKEKEKQKEQGIVETCQQQQQDSLSVADYGWPNDVDQSHLDSSDMFDVDELLRDLNGDDVFAGLNQDRYPGNSVANGSYRPESQQSGFDPLQSLNYGIPPFQLEGKDGNGFFDDLSYLDLEN

How the values were obtained:
Settings in all cases: both partners purified
[1] = molecular target: B3; assay: SPR
[2] = molecular target: T1, human Med25 ACtivator Interaction …; assay: SPR
[3] = molecular target: B4; assay: ITC
[4] = molecular target: B3; assay: ITC

Row | Binder | Kd [1] [nM] | Kd [2] [µM] | Ka [3] [M⁻¹] | Kd [3] [nM] | dH [4] [kcal/mol]
1 | B1 | 1800 | 2.8 |  |  | 
2 | B2 | 2400 | 5.4 |  |  | 
3 | B3 |  |  | 328000 | 3000 | 
4 | B4 |  |  |  |  | -21.9
